Assay [1] deals with T1, memapsin 2 (spontaneously activated promemapsin 2-T1; amino acids 43-456 and 45-456 of SEQ ID NO: 8) (human, UniProt P56817 41-454).
T1 construct: also called Mep2; M2
The experiment in a line: bead library probed with 4 nM memapsin 2, OM99-2 wash, anti-memapsin 2 IgG and alkaline phosphatase staining.

Assay [2] deals with T1, memapsin 2 (spontaneously activated …). The experiment in a line: kinetic inhibition of memapsin 2, fluorogenic substrate.
Assay [3] has the same target. Nature of the assay: inhibition of cleavage of a fluorogenic substrate.
For assay [4], the target named is T2, memapsin 1 (amino acid residues 58-461 of SEQ ID NO: 4) (Homo sapiens (Human), UniProt Q9Y5Z0 63-466).
T2 construct: also called Mep1; M1
T2 sequence: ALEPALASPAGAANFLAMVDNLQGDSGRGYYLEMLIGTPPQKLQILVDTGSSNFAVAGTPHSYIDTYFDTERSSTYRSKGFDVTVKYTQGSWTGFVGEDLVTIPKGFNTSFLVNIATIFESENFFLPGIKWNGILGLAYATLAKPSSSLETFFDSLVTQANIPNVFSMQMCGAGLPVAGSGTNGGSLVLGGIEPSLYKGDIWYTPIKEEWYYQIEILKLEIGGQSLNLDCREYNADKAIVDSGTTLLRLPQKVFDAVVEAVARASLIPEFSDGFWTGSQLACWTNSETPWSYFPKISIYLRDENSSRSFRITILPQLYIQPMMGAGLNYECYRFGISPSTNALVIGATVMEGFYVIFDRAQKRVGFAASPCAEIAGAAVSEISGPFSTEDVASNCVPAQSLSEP
The experiment in a line: inhibition of cleavage of fluorogenic substrate FS-2.

The target of assay [5] is T1, memapsin 2 (spontaneously activated …). The description is as above.
Assay [6] has as its target T2, memapsin 1 (amino acid residues 58-461 …). The experiment in a line: ratio of Ki apparent for memapsin 1 to that for memapsin 2.

Where no end group is shown, it is not given here. [ ]: non-standard residue; d: D form. FAM = 5-(and 6-)carboxyfluorescein; resin = not defined here; Ahx = NCCCCCC(=O)O

T1 sequence (P56817 41-454 Q214G): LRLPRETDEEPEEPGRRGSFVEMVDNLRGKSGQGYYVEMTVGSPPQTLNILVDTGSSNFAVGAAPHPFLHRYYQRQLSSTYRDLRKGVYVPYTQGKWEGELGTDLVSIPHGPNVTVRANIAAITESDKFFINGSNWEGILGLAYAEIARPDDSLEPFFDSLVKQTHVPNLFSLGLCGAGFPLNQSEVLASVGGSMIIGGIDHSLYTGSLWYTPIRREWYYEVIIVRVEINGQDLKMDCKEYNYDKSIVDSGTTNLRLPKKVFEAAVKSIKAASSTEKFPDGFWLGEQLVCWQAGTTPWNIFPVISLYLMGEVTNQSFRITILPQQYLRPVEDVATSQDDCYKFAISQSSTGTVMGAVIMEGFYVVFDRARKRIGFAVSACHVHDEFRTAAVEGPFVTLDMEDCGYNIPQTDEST

B1: library bead Gly-Ile-Asp-Leu*Ala-Ala-Gln-Phe-Arg-Met-Gly-Gly-resin (peptide)
peptide: GIDLAAQFRMGG-resin
modifications: reading uncertain; also: hydroxyethylene isostere between Leu4 and Ala5, printed as Gly-Ile-Asp-Leu*Ala-Ala-Gln-Phe-Arg-Met-Gly-Gly-resin
On to B1, for which the binding result in assay [1] is on record as “binds”.

B2: CPI-2: FAM-Ahx-(ELDL*AVEF)-GG-(RRRRRRRRR) (peptide)
peptide: {FAM-Ahx}-ELDLAVEFGG[dR][dR][dR][dR][dR][dR][dR][dR][dR]
modifications: numbers in words are those of the source; also: Leu4*Ala6: hydroxyethylene isostere -CH(OH)-CH2- replaces the amide bond
notes: OM00-3 joined through Gly-Gly to nine D-arginines
Regarding B2, in assay [2], the Ki apparent came out at 58 nM.

B3: CPI-1: FAM-Ahx-(EVNL*AAEF)-G-([…]) (peptide)
peptide: {FAM-Ahx}-EVNLAAEFGYGRKKRRQRRR
modifications: numbers in words are those of the source; also: Leu4*Ala6: hydroxyethylene isostere -CH(OH)-CH2- replaces the amide bond
notes: OM99-2 joined through Gly to HIV tat residues 47-57; also called Fs[OM99-2]tat
With B3, the Ki apparent in assay [2] was determined as 39 nM.

B4: OM00-3 (ELDL*AVEF; Glu-Leu-Asp-Leu*Ala-Val-Glu-Phe) (peptide)
peptide: ELDLAVEF
modifications: numbers in words are those of the source; also: Leu4*Ala5: hydroxyethylene transition-state isostere -CH(OH)-CH2- replaces the peptide bond
A word on the Ki: it is a measure of affinity in units of concentration, obtained from inhibition or displacement. As for B4, in assay [3], the Ki was 0.31 nM, the “fold improvement of Ki relative to OM99-2” value came out at 5.2 fold and the “fold lower Ki than OM99-2” value is around 5 fold. The Ki apparent in assay [4] was 0.18 nM. Moreover, the Ki apparent in assay [5] came to 0.31 nM. In addition, in assay [6], the “Ki apparent (M1/M2)” value came to 0.59.

B5: CPI-3: (ELDL*AVEF)-GG-(RRRRRRRRR) (peptide)
peptide: ELDLAVEFGG[dR][dR][dR][dR][dR][dR][dR][dR][dR]
modifications: numbers in words are those of the source; also: Leu4*Ala6: hydroxyethylene isostere -CH(OH)-CH2- replaces the amide bond
B5 returned a Ki in assay [2] of 35 nM.

For the origin of these results see patent US20100267609A1 (OKLAHOMA MEDICAL RESEARCH FOUNDATION, published 2010).
